The target of assay [1] is Human Galectin-3 (Gal3) protein (human) (UniProt P17931). The experiment in a line: competition ELISA, hGal3 coated; competitor: biotinylated aggregated phospho-tau.
The target is the same in assay [2]. The experiment in a line: competition ELISA, hGal3 coated; competitor: biotinylated aggregated alpha-synuclein.

The values below come from US20250026838A1.

Human Galectin-3 (Gal3) protein (human), sequence (P17931 whole entry): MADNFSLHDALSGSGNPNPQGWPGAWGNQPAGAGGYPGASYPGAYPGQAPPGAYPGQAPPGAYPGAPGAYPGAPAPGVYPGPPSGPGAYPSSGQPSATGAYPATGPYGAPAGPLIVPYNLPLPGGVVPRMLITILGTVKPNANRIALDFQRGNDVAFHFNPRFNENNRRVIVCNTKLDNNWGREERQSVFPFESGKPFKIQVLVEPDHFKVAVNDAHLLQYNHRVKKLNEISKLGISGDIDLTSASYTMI

B1: 846.1B2-hIgG4(S228P) (antibody, V domains shown)
VH: QIQLVQSGPELKKPGETVKISCKASGYTFTNYGMNWVKQAPGKGLKWMGWINTYTGEPSYADDFKGRFAFSLETSASTAYLQINNLKNEDMATYFCARWGGYAGDYYAMDFWGQGTSVTVSS
VL: NIWLTQSPSSLAVSAGEMVTMTCKSSQSVLYSSNQKNYLAWYQQKPGQSPKLLIYWASTRESGVPDRFTGSGSGTDFSLTISSVQAEDLAVYYCHQYLSSLTFGAGTKLELKR
Consider B1, for which the blocking efficacy in assay [1] and in assay [2] was more than 70% each time.

B2: 846.1H5-hIgG4(S228P) (antibody, V domains shown)
VH: EVQLLESGGGLVKPGGSLKLSCAASGFTFSSYAMSWVRQTPEKRLEWVASISSGGDTYYPDSVKGRFTISRDNARNILYLQMSSLRSEDTAMYYCASYGNSLFDYWGQGTTLTVSS
VL: DVVMTQTPLSLPVSLGDQASISCRSSQSLVHNSGNTYLHWYLQRPGQSPNLLIYKVSNRFSGVPDRFSGSGSGTDFTLKISRVAAEDLGVYFCSQSTHVPPTFGGGTKLEIKR
For B2, the blocking efficacy in assay [2] is more than 70%.

B3: 2D10-VH0-VL0-hIgG4(S228P) (antibody, V domains shown)
VH: QFQLQQSGPELVKPGASVKISCKASGYTFTDYYINWVKQRPGQGLEWIGWIYPGSNDTKYNEKFKGKATLTVDTSSSTAYMQLGSLTSEDSAVYFCANYFGCSGWFFDVWGTGTTVTVSS
VL: DIVMTQAAFSNPVTLGTSASISCRSSKSLLHSDGITYLYWYLQRPGQSPQLLIYRMSNLASGVPDRFSGSGSGTDFTLRISRVEAEDVGVYYCAQMIEFPLTFGAGTILELKR
For B3, the blocking efficacy in assay [1] and in assay [2] was more than 70% in each case.
